Target: the molecule itself
Assay: mass photometry, R534* homodimer

B1: human AsnRS R534∗ (ΔR534-P548), N-terminal 6xHis tag (enzyme, UniProt O43776 1-533, looked up)
chain: MVLAELYVSDREGSDATGDGTKEKPFKTGLKALMTVGKEPFPTIYVDSQKENERWNVISKSQLKNIKKMWHREQMKSESREKKEAEDSLRREKNLEEAKKITIKNDPSLPEPKCVKIGALEGYRGQRVKVFGWVHRLRRQGKNLMFLVLRDGTGYLQCVLADELCQCYNGVLLSTESSVAVYGMLNLTPKGKQAPGGHELSCDFWELIGLAPAGGADNLINEESDVDVQLNNRHMMIRGENMSKILKARSMVTRCFRDHFFDRGYYEVTPPTLVQTQVEGGATLFKLDYFGEEAFLTQSSQLYLETCLPALGDVFCIAQSYRAEQSRTRRHLAEYTHVEAECPFLTFDDLLNRLEDLVCDVVDRILKSPAGSIVHELNPNFQPPKRPFKRMNYSDAIVWLKEHDVKKEDGTFYEFGEDIPEAPERLMTDTINEPILLCRFPVEIKSFYMQRCPEDSRLTESVDVLMPNVGEIVGGSMRIFDSEEILAGYKREGIDPTPYYWYTDQRKYGTCPHGGYGLGLERFLTWILNRYHI
notes: also called His-R534∗; R534∗ mutant; source: E. coli BL21(DE3) or BL21 ClearColi, purified (Ni-NTA, heparin, SEC); not shown: His6, N-terminal, kept
Kd: 54.4 nM

— PMC12513289 (The Journal of Biological Chemistry, 2025)
